Assay results published in the supplement of paper PMC7125110.
± gives the standard error. Fewer inactive variants are shown than the library holds.

B1: glmS ribozyme (parent)
chain: AUAAAAGCGCCAGAACUACAGAAAUGUAGUUGACGAGGAGGAGGUUUAUCGAAUUUUCGGCGGAUGCCUCCAAA

Legend:
Details in all cases: with glucosamine-6-phosphate
glucosamine-6-phosphate [1] = variants of: B1; test: self-cleavage kobs at 160 uM GlcN6P; higher = faster cleavage; RNA array
How it was run: (§1)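 Tracking of barcoded ribozyme variants used a hybridised Cy3 probe at 37 °C, after in situ transcription by E. coli RNA polymerase on sequenced MiSeq chips. The flowed solution held 40 μM to 10 mM glucosamine-6-phosphate in HEPES/KCl/Mg(OAc)2 buffer, and imaging ran over ~14 h. kobs was taken from exponential decay fits of normalised per-tile medians, and kcat and KM from weighted Michaelis–Menten fits.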

glucosamine-6-phosphate [2] = variants of: B1; test: self-cleavage kobs at 640 uM GlcN6P; higher = faster cleavage; RNA array
How it was run: as §1

glucosamine-6-phosphate [3] = variants of: B1; test: self-cleavage kobs at 2500 uM GlcN6P; higher = faster cleavage; RNA array
How it was run: as §1

glucosamine-6-phosphate [4] = variants of: B1; test: self-cleavage kobs at 10000 uM GlcN6P; higher = faster cleavage; RNA array
How it was run: as §1

Variant | self-cleavage kobs at 160 uM GlcN6P (glucosamine-6-phosphate [1]) [s⁻¹] | self-cleavage kobs at 640 uM GlcN6P (glucosamine-6-phosphate [2]) [s⁻¹] | self-cleavage kobs at 2500 uM GlcN6P (glucosamine-6-phosphate [3]) [s⁻¹] | self-cleavage kobs at 10000 uM GlcN6P (glucosamine-6-phosphate [4]) [s⁻¹]
C11A A33U G66A | < 1e-05 | < 1e-05 | < 1e-05 | –
C11A G13A A39G | < 1e-05 | < 1e-05 | – | –
G9C U46G | < 1e-05 | < 1e-05 | – | < 1e-05
C10U G40A | < 1e-05 | – | – | < 1e-05
G13U A15G G35C A52U | < 1e-05 | < 1e-05 | < 1e-05 | –
C11A A15U C70G | 4.95e-05 ± 1.9e-05 | 0.000432 ± 0.00013 | – | –
C10G C19A A48C | < 1e-05 | < 1e-05 | – | –
A14G C16U C34A G41A A52C | < 1e-05 | – | < 1e-05 | –
A12G G35A | < 1e-05 | < 1e-05 | – | < 1e-05
G9U C10G C11U C70U | < 1e-05 | – | < 1e-05 | –
A12U A14U U45A | 0.000413 ± 0.0001 | 0.00157 ± 0.00031 | 0.00242 ± 0.00082 | –
C10A U69G | 3.29e-05 ± 1.6e-05 | – | 0.000329 ± 8.6e-05 | 3.29e-05 ± 1.6e-05
G9U G32C | < 1e-05 | < 1e-05 | – | < 1e-05
C11A A15G U69G | 0.000139 ± 6.4e-05 | 0.000293 ± 0.0001 | 0.000159 ± 4.9e-05 | –
C8U A15U U31G | < 1e-05 | < 1e-05 | – | –
C11G A15G U65C | < 1e-05 | – | – | –
G13A G41C C67U | < 1e-05 | < 1e-05 | < 1e-05 | –
C11G G13A G44U U69G | < 1e-05 | – | < 1e-05 | –
A12U A15G C16G U30C A33U A48G G66A | < 1e-05 | < 1e-05 | – | –
C8U G32U C50G | 0.000945 ± 0.00017 | 0.000695 ± 0.00016 | 0.000269 ± 8.5e-05 | –
A14C G40U G59U C61U | < 1e-05 | – | – | –
A12G C58U G59A | < 1e-05 | – | – | –

Variant | self-cleavage kobs at 160 uM GlcN6P (glucosamine-6-phosphate [1]) [s⁻¹] | self-cleavage kobs at 640 uM GlcN6P (glucosamine-6-phosphate [2]) [s⁻¹] | self-cleavage kobs at 2500 uM GlcN6P (glucosamine-6-phosphate [3]) [s⁻¹] | self-cleavage kobs at 10000 uM GlcN6P (glucosamine-6-phosphate [4]) [s⁻¹]
C10G U46A U55C | < 1e-05 | – | < 1e-05 | –
G13A U45C C50U C71G | < 1e-05 | < 1e-05 | < 1e-05 | –
A14C A36G U46G U65A | < 1e-05 | < 1e-05 | – | –
G9U U31G A48G | < 1e-05 | – | – | –
G9A A14U A36C U46G | < 1e-05 | – | < 1e-05 | –
G13A U30A U31A A42C U46G | < 1e-05 | – | < 1e-05 | –
G9C C50G | 0.00045 ± 0.00018 | – | – | –
G9A A52U C70U | < 1e-05 | – | – | –
C11U U55G C71A | 3.73e-05 ± 1.5e-05 | 8.41e-05 ± 1.7e-05 | 0.000143 ± 5.3e-05 | –
G9C G37A U46A A52U G60A C61A | < 1e-05 | – | < 1e-05 | –
C8U G40U G43U | < 1e-05 | < 1e-05 | < 1e-05 | –
G9A A42G G44C U56G U65G | < 1e-05 | < 1e-05 | – | –
C11G G32A U65G | < 1e-05 | < 1e-05 | – | < 1e-05
C11G A14G G29A | < 1e-05 | – | – | –
C10U C11G A39C | < 1e-05 | < 1e-05 | – | –
A12U A15G G41A | 0.000272 ± 4.5e-05 | 0.00098 ± 0.00018 | – | –
A12G G32A C67G C68U | 0.000534 ± 0.00025 | – | – | –
C11A G38A U45A | < 1e-05 | – | – | –
C11A C16A | < 1e-05 | – | – | 2.86e-05 ± 1e-05
C10A A48C U56C | < 1e-05 | < 1e-05 | – | –
G13C C34U | < 1e-05 | < 1e-05 | < 1e-05 | < 1e-05
A12G U46G G59U | < 1e-05 | < 1e-05 | < 1e-05 | –

Variant | self-cleavage kobs at 160 uM GlcN6P (glucosamine-6-phosphate [1]) [s⁻¹] | self-cleavage kobs at 640 uM GlcN6P (glucosamine-6-phosphate [2]) [s⁻¹] | self-cleavage kobs at 2500 uM GlcN6P (glucosamine-6-phosphate [3]) [s⁻¹] | self-cleavage kobs at 10000 uM GlcN6P (glucosamine-6-phosphate [4]) [s⁻¹]
A12G A14C A48U | < 1e-05 | < 1e-05 | < 1e-05 | –
G13U G37C U45C C68U | < 1e-05 | – | < 1e-05 | –
G9A U65G | < 1e-05 | < 1e-05 | – | –
C10A G35A A39G | < 1e-05 | – | < 1e-05 | –
G9A U65G C71G | < 1e-05 | < 1e-05 | < 1e-05 | –
G9U A52C | < 1e-05 | – | < 1e-05 | –
G9A A36U C68U | < 1e-05 | < 1e-05 | – | –
C8U U47C A48C C67G | < 1e-05 | < 1e-05 | < 1e-05 | –
A14G A36C | < 1e-05 | < 1e-05 | – | –
C10G U31C A33C G51U C71U | < 1e-05 | < 1e-05 | – | –
C10U A12G U31A A36C C58A | < 1e-05 | – | – | –
A12C C50A A53G G63U | < 1e-05 | – | – | –
A12U A15C U45C A48C | < 1e-05 | – | < 1e-05 | –
C10U G13U A42U U46G U57A | < 1e-05 | < 1e-05 | < 1e-05 | –
C8U G29U C34U U46G A53G | < 1e-05 | < 1e-05 | < 1e-05 | –
A14C U54C U57A G60A C70U | < 1e-05 | < 1e-05 | < 1e-05 | –
G13U A42C U54A U55G | < 1e-05 | < 1e-05 | < 1e-05 | –
G13C G29U G37C C71U | < 1e-05 | – | – | –
G9A C11A G35A U47C C68A | < 1e-05 | – | < 1e-05 | –
C10A A14G | < 1e-05 | – | – | 3.58e-05 ± 1.1e-05
A14C G32C G35U U57A | < 1e-05 | < 1e-05 | – | –
A14C G38C | < 1e-05 | < 1e-05 | < 1e-05 | < 1e-05

Variant | self-cleavage kobs at 160 uM GlcN6P (glucosamine-6-phosphate [1]) [s⁻¹] | self-cleavage kobs at 640 uM GlcN6P (glucosamine-6-phosphate [2]) [s⁻¹] | self-cleavage kobs at 2500 uM GlcN6P (glucosamine-6-phosphate [3]) [s⁻¹] | self-cleavage kobs at 10000 uM GlcN6P (glucosamine-6-phosphate [4]) [s⁻¹]
C10A U57A A64G C67G C71A | 0.000245 ± 7.6e-05 | – | 8.51e-05 ± 3.3e-05 | –
G13U A14C G32A U46C G63A C68U U69G C71U | < 1e-05 | < 1e-05 | – | –
C10G C11U C16A A33U C34U C50G C70U | 4.84e-05 ± 2.3e-05 | 4.89e-05 ± 1.6e-05 | 6.14e-05 ± 2.5e-05 | –
C10G G44U C50U C61U | < 1e-05 | < 1e-05 | – | –
C11G A33U U49C C50U U65C | < 1e-05 | – | – | –
C10A U31C U57A A64U | < 1e-05 | – | – | –
A12C A14U G44U U45A | < 1e-05 | – | – | –
G9U C10U U54G | < 1e-05 | – | – | –
G13C A14U G32A | 0.000741 ± 0.00017 | – | 0.00667 ± 0.0017 | –
C10U A53C | < 1e-05 | < 1e-05 | – | –
G13U G44U | < 1e-05 | – | – | –
C11U G40C G43A G60U U69G C70U | < 1e-05 | – | < 1e-05 | –
A12C G51C U57C A64C | < 1e-05 | < 1e-05 | < 1e-05 | –
C8U G9C G62A U65G | < 1e-05 | – | < 1e-05 | –
G13A U46G A48G G59A | < 1e-05 | – | < 1e-05 | < 1e-05
C8U U30C G59U | < 1e-05 | < 1e-05 | < 1e-05 | –
C10U G32C A36G A39U | < 1e-05 | < 1e-05 | < 1e-05 | –
A14C G29A U56C U57G | < 1e-05 | < 1e-05 | – | –
G9A U30G G59C | < 1e-05 | < 1e-05 | – | –
C10A A42U | < 1e-05 | < 1e-05 | < 1e-05 | –
C11G A12C A52C G59U G66A C67G | < 1e-05 | < 1e-05 | < 1e-05 | –
C11A U46G | < 1e-05 | < 1e-05 | – | 4.72e-05 ± 2.1e-05

Variant | self-cleavage kobs at 160 uM GlcN6P (glucosamine-6-phosphate [1]) [s⁻¹] | self-cleavage kobs at 640 uM GlcN6P (glucosamine-6-phosphate [2]) [s⁻¹] | self-cleavage kobs at 2500 uM GlcN6P (glucosamine-6-phosphate [3]) [s⁻¹] | self-cleavage kobs at 10000 uM GlcN6P (glucosamine-6-phosphate [4]) [s⁻¹]
A12G U46C A48U | < 1e-05 | – | – | –
G13C A15U G51U C67U C68G | 6.58e-05 ± 2.5e-05 | – | – | –
A12G G32C C71A | < 1e-05 | < 1e-05 | – | –
G9A C16U G41A A48U | < 1e-05 | < 1e-05 | < 1e-05 | < 1e-05
C8U G32C U47A | < 1e-05 | < 1e-05 | < 1e-05 | –
G9U G40A | < 1e-05 | < 1e-05 | < 1e-05 | < 1e-05
C11G U31C C71U | < 1e-05 | – | < 1e-05 | –
G9A G38A G51A | < 1e-05 | < 1e-05 | < 1e-05 | –
C10A C68G | 0.000416 ± 0.00019 | 6.2e-05 ± 2.8e-05 | 6.4e-05 ± 1.8e-05 | –
C10G U31C A48U C61A C70G | < 1e-05 | < 1e-05 | – | –
C11U C34U G66C | < 1e-05 | – | < 1e-05 | –
A12C G59A G63C | < 1e-05 | < 1e-05 | – | –
G9A A12U U31A A52G G59C | < 1e-05 | – | < 1e-05 | –
C11U A12C G43C | < 1e-05 | – | < 1e-05 | –
A14C C34A A48C C61G | < 1e-05 | – | < 1e-05 | < 1e-05
C10G C11A C16U G38U | < 1e-05 | < 1e-05 | – | < 1e-05
A12G G13C G29A C50G | 0.00168 ± 0.00066 | – | 4.52e-05 ± 1.8e-05 | –
A12G A14C G60C | < 1e-05 | < 1e-05 | – | –
C10G U45C U49A U54G C70G | < 1e-05 | < 1e-05 | – | –
G9C G40U | < 1e-05 | < 1e-05 | < 1e-05 | < 1e-05
G9C G40A | < 1e-05 | < 1e-05 | < 1e-05 | < 1e-05
